The text below walks through data of patent US12296012 (Pfizer, dated 2025).

T1: human FLT3 (human, UniProt P36888 27-541, limits assumed)
T1 construct: Soluble analyte hFLT3 in SPR; also called hFLT3; huFlt3
T1 sequence: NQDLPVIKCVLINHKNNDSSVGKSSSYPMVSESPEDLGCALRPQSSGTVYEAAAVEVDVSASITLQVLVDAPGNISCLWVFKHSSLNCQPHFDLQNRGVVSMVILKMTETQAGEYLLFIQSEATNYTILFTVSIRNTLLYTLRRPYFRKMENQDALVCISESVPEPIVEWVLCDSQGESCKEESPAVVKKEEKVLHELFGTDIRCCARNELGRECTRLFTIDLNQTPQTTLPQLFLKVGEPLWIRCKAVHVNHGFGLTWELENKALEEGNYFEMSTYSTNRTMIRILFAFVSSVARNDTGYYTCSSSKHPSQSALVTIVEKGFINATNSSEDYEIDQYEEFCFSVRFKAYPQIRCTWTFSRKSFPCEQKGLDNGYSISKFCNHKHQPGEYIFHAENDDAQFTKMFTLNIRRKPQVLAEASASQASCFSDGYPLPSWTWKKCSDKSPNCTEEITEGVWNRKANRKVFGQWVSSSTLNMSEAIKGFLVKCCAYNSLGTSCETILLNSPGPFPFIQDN

B1: P1B11 (scFv format) (scFv, not shown: a dimerising Fc or GST; small tags and cut ends)
scFv: QVQLVQSGAEVKKPGSSVKVSCKASGGTFRSFDISWVRQAPGQGLEWMGRIIPILGYANYAQKFQGRVTITADESTSTAYMELSSLRSEDTAVYYCASDLGAPWAGYPFDPWGQGTLVTVSSGGGGSGGGGSGGGGSEIVLTQSPGTLSLSPGERATLSCRASQSVSSSELAWYQQKPGQAPRLLIYDASSRATGIPDRFSGSGSGTDFTLTISRLEPEDFAVYYCQQYDSSPLTFGQGTKVEIK
B2: P4C7 (scFv format) (scFv, not shown: a dimerising Fc or GST; small tags and cut ends)
scFv: QVQLVQSGAEVKKPGSSVKVSCKASGGTFSSYTISWVRQAPGQGLEWMGGIIPAFGIANYAQKFQGRVTITADKSTSTAYMELSSLRSEDTAVYYCAKGGSYSLDYFDIWGQGTLVTVSSGGGGSGGGGSGGGGSEIVLTQSPGTLSLSPGERATLSCRASQYVSASLLAWYQQKPGQAPRLLIYGASTRATGIPDRFSGSGSGTDFTLTISRLEPEDFAVYYCQQYARSSTFGQGTKVEIK
B3: P7F9 (scFv format) (scFv)
scFv: EVQLLESGGGLVQPGGSLRLSCAASGFTFSSYAMSWVRQAPGKGLEWVSAIGGSGGSTYYADSVKGRFTISRDNSKNTLYLQMNSLRAEDTAMYYCARDYYAFSDPAYGGMDVWGQGTLVTVSSGGGGSGGGGSGGGGSNFMLTQPHSVSESPGKTVTISCTRSSGSIASNYVQWYQQKPGQAPVLVVYDDSDRPSGIPERFSGSNSGNTATLTISRVEAGDEADYYCQVWDSSSDHWVFGGGTKLTVL
B4: P5F7 (scFv format) (scFv)
scFv: EVQLLESGGGLVQPGGSLRLSCAASGFTFSSYAMNWVRQAPGKGLEWVSSISGGGRSTYYADSVKGRFTISRDNSKNTLYLQMNSLRAEDTAVYYCARDLSPSDVGWGYGFDIWGQGTLVTVSSGGGGSGGGGSGGGGSEIVLTQSPATLSLSPGERATLSCRASQSVSSNLAWYQQKPGQAPRLLIYDTFTRATGIPARFSGSGSGTDFTLTISRLEPEDFAVYYCQQYGSSPPTFGQGTRLEIK
B5: P9F1 (scFv format) (scFv, not shown: a dimerising Fc or GST; small tags and cut ends)
scFv: EVQLLESGGGLVQPGGSLRLSCAASGFIFSSFAMSWVRQAPGKGLEWVSDISGSGASTYYADSVKGRFTISRDNSKNTLYLQMNSLRAEDTAVYYCASASGGSGSYWPYMDPWGQGTLVTVSSGGGGSGGGGSGGGGSQSVLTQPPSASGTPGQRVTISCSGSGSNIGSNYVYWYQQLPGTAPKLLIYRNNQRPSGVPDRFSGSKSGTSASLAISGLRSEDEADYYCAAWDGSLSRPVFGTGTKLTVL
B6: P14G2 (scFv format) (scFv)
scFv: EVQLLESGGGLVQPGGSLRLSCAASGFTFSNYVMNWVRQAPGKGLEWVSAISGSGATTYYADSVKGRFTISRDNSKNTLYLQMNSLRAEDTAVYYCVSGLWAGGIWGQGTLVTVSSGGGGSGGGGSGGGGSDIQMTQSPSSLSASVGDRVTITCRASQSISSYLNWYQQKPGKAPKLLIYDASDLQRGVPSRFSGSGSGTDFTLTISSLQPEDFATYYCQQSYNTPWTFGQGTKVEIK
B7: P5A3 (scFv format) (scFv, not shown: a dimerising Fc or GST; small tags and cut ends)
scFv: QVQLVQSGAEVKKPGSSVKVSCKASGGTFSSYYIGWVRQAPGQGLEWMGGIIPWFGTANYAQKFQGRVTITADKSTNTAYMELSSLRSEDTAVYYCAADHHDSPSGYTSGGFDVWGQGTLVTVSSGGGGSGGGGSGGGGSQSALTQPASVSGSPGQSITISCTGTSSDVGGYNYVSWYQQHPGKAPKLMIYEVSKRPSGVPDRFSGSKSGNTASLTVSGLQAEDEADYYCSSYAGSNTVVFGGGTKLTVL
B8: P4H11 (scFv format) (scFv)
scFv: EVQLLESGGGLVQPGGSLRLSCAASGFTFSSYAMNWVRQAPGKGLEWVSSISGGGRSTYYADSVKGRFTISRDNSKNTLYLQMNSLRAEDTAVYYCARDLSPSDVGWGYGFDIWGQGTLVTVSSGGGGSGGGGSGGGGSEIVLTQSPGTLSLSPGERATLSCRASQSVSNTYLAWYQQKPGQAPRLLIYDTSSRATGIPDRFSGSGSGTDFTLTISRLEPEDFAVYYCQQYGSSLTFGQGTKVEIK
B9: P1B4 (scFv format) (scFv, not shown: a dimerising Fc or GST; small tags and cut ends)
scFv: QVQLVQSGAEVKKPGSSVKVSCKASGGVFSRYALSWVRQAPGQGLEWMGGIIPMLGFANYAQKFQGRVTITADESTSTAYMELSSLRSEDTAVYYCATLDFGALDYWGQGTLVTVSSGGGGSGGGGSGGGGSEIVLTQSPGTLSLSPGERATLSCRASQSVPNEQLAWYQQKPGQAPRLLIYDASSRATGIPDRFSGSGSGTDFTLTISRLEPEDFAVYYCQQYGSPPLTFGQGTKVEIK
B10: P1A5 (scFv format) (scFv)
scFv: QVQLVQSGAEVKKPGSSVKVSCKASGGVFSRYALSWVRQAPGQGLEWMGGIIPMLGFANYAQKFQGRVTITADESTSTAYMELSSLRSEDTAVYYCATLDFGALDYWGQGTLVTVSSGGGGSGGGGSGGGGSEIVLTQSPGTLSLSPGERATLSCRASQAVDSSDLAWYQQKPGQAPRLLIYDAYTRPSGIPDRFSGSGSGTDFTLTISRLEPEDFAVYYCQQYGSSPLTFGGGTKLEIK
B11: P7H3 (scFv format) (scFv, not shown: a dimerising Fc or GST; small tags and cut ends)
scFv: EVQLLESGGGLVQPGGSLRLSCAASGFTFSSYAMHWVRQAPGKGLEWVSAISGSGGSTYYADSVKGRFTISRDNSKNTLYLQMNSLRAEDTAVYYCARGTRWWWGDAFDHWGQGTLVTVSSGGGGSGGGGSGGGGSQSVLTQPPSVSVAPGKTARITCGGNNIGSKSVHWYQQKPGQAPVLVIYYDSDRPSGIPERFSGSNSGNTATLTISRVEAGDEADYYCQVWDSSTAWVFGGGTKLTVL
B12: P3E10 (scFv format) (scFv)
scFv: QVQLVQSGAEVKKPGSSVKVSCKASGGTFSSYAIQWVRQAPGQGLEWMGGIVGSWGLANYAQKFQGRVTITTDKSTSTAYMELSSLRSEDTAVYYCATSAFGELASWGQGTLVTVSSGGGGSGGGGSGGGGSEIVLTQSPGTLSLSPGERATLSCRASQSVPSSQLAWYQQKPGQAPRLLIYDASSRATGIPDRFSGSGSGTDFTLTISRLEPEDFAVYYCQQYGSSPLTFGQGTKVEIK
B13: P9B5 (scFv format) (scFv, not shown: a dimerising Fc or GST; small tags and cut ends)
scFv: EVQLLESGGGLVQPGGSLRLSCAASGFIFASYAMSWVRQAPGKGLEWVSEISSSGGSTTYADSVKGRFTISRDNSKNTLYLQMNSLRAEDTAVYYCARDRVMAGLGYDPFDYWGQGTLVTVSSGGGGSGGGGSGGGGSQSVLTQPPSASGTPGQRVTISCSGSSSNIGSNYVYWYQQLPGTAPKLLIYRNNQRPSGVPDRFSGSKSGTSASLAISGLRSEDEADYYCAAWDDSLSGVVFGGGTKLTVL

This test concerns the target T1, human FLT3. The experiment in a line: SPR Biacore T200, 37C; scFv format.
For the molecule B1, binding was characterised by a dissociation constant (Kd) of 30.3 nM, the koff (commonly the rate constant with which the complex falls apart) came out at 0.00257 s⁻¹, the kon (commonly the second-order rate constant of association) is 84700 M⁻¹ s⁻¹ and the t1/2 amounted to 4.5 min.

B2: the Kd – broadly, the equilibrium constant for the complex coming apart – was 13.6 nM; the koff came out at 0.00164 s⁻¹; the kon was 121000 M⁻¹ s⁻¹; the t1/2 is 7 min.

The molecule B3 yielded a Kd of 27.7 nM, a koff of 0.00241 s⁻¹, a kon of 87000 M⁻¹ s⁻¹ and a t1/2 of 4.8 min.

B4 returned a Kd of 1 nM, a koff of 0.000197 s⁻¹, a kon of 189000 M⁻¹ s⁻¹ and a t1/2 of 59 min.

For the molecule B5, the Kd was determined as 126 nM, the koff is 0.0286 s⁻¹, the kon amounted to 226000 M⁻¹ s⁻¹ and the t1/2 is 0.4 min.

With B6, the dissociation constant Kd was determined as 3.3 nM, the koff is 0.000305 s⁻¹, the kon came out at 93500 M⁻¹ s⁻¹ and the t1/2 is 37.9 min.

In the case of B7, the Kd was 216 nM, the koff stood at 0.0175 s⁻¹, the kon was determined as 81000 M⁻¹ s⁻¹ and the t1/2 came out at 0.7 min.

As to B8, the Kd stood at 58.3 nM, the koff is 0.00933 s⁻¹, the association rate constant (kon) amounted to 160000 M⁻¹ s⁻¹ and the t1/2 worked out at 1 min.

Take B9: binding was put at a Kd of 27.3 nM, the koff is 0.00327 s⁻¹, the kon was 120000 M⁻¹ s⁻¹ and the t1/2 was 3.5 min.

In the case of B10, the Kd was found to be 1.1 nM, the koff is 0.000292 s⁻¹, the kon was determined as 259000 M⁻¹ s⁻¹ and the t1/2 is 40 min.

B11: the affinity, expressed as Kd, was 9.1 nM; the koff worked out at 0.00187 s⁻¹; the kon is 205000 M⁻¹ s⁻¹; the t1/2 amounted to 6.2 min.

The molecule B12 registered a Kd of 65.1 nM, a koff of 0.0112 s⁻¹, an association rate constant (kon) of 172000 M⁻¹ s⁻¹ and a t1/2 of 1 min.

For B13, binding was put at a Kd of 18.1 nM, the koff came out at 0.000687 s⁻¹, the kon is 38000 M⁻¹ s⁻¹ and the t1/2 came to 16.8 min.
